Here are results for two substances from patent US20160264664A1.

In assay [1] the target is T1, mouse P2X7 (mouse) (UniProt Q9Z1M0).
T1 sequence: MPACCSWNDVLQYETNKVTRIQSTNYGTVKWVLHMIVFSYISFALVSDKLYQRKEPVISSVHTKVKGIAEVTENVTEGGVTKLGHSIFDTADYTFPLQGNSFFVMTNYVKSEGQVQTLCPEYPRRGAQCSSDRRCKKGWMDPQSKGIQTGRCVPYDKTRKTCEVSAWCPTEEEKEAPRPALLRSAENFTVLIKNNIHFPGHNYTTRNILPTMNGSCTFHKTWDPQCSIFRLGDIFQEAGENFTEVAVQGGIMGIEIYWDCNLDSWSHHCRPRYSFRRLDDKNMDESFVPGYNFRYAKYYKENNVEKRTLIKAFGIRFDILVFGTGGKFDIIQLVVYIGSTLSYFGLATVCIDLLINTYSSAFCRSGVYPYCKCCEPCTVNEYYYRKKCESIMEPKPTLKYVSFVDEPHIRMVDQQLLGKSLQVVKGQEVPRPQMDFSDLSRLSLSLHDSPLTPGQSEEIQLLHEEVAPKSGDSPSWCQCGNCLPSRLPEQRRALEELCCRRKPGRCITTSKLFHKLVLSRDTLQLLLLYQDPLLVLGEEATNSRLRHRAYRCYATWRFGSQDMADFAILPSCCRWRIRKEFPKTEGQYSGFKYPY
Briefly: cell-based or functional assay.

In assay [2] the target is T1, mouse P2X7 (mouse). Briefly: flow cytometry, purified Nanobody titrated on mP2X7-CHO cells. (In flow cytometry, cells or beads pass a laser one at a time.)
Assay [3] deals with human chemokine receptor CXCR4 (human) (UniProt P61073). Nature of the assay: ELISA, periplasmic extract on CXCR4 membrane vesicles, anti-Myc detection. For orientation: In an ELISA, binding on a coated surface is turned into a signal by an enzyme label.
For assay [4] the target is unchanged. Nature of the assay: flow cytometry, stable CXCR4 CAKI clone vs CAKI WT cells.
The target is the same in assay [5]. Nature of the assay: flow cytometry, pVAX1-hCXCR4 transfected HEK293 vs non-transfected HEK293 cells.
Assay [6] shares this target. Nature of the assay: flow cytometry, 12G5 then PE goat anti-mouse IgG, on the stable CAKI/CXCR4 clone; the control panel CAKI WT prints MCF:1089.
For assay [7] the target is unchanged. Nature of the assay: flow cytometry, 12G5 then PE goat anti-mouse IgG, on HEK293 cells transiently transfected with pVAX1-CXCR4; the control panel HEK293 WT prints MCF:3918.

“And” between values parts separate entries of the source, which are not always exact repeats. Identical values can stand only once.

Chain of human chemokine receptor CXCR4 (human) (P61073 whole entry): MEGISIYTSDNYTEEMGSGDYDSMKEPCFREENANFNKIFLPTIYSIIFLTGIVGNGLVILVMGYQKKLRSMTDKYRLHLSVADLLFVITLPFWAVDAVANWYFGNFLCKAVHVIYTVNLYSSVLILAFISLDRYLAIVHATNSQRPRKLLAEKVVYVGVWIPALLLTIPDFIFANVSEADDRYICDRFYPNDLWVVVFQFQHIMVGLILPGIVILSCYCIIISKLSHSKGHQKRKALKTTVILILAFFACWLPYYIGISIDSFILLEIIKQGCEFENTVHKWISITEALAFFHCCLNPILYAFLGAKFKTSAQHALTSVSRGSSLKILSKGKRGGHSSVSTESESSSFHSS

Consider irrelevant control Nanobody (VHH), for which the percentage of cells remaining CD62L positive after ATP or NAD (Yac-1 cells, control) with mouse P2X7 (mouse) [1] is 2% and 20%. The substance also registered a maximum MCF value in the assay with mouse P2X7 (mouse) [2] of 314 to 355 MCF. In assay [3], this substance returned an ELISA signal on hCXCR4 membrane vesicles over control membrane vesicles of 1.1.
For the substance “Human CXCR4 specific monoclonal antibody 12G5 (R&D Systems MAB170)”, in assay [4], the fluorescence shift over non-transfected camelid cells amounted to 114 fold. Moreover, the fluorescence intensity shift of transfected over non-transfected cells in assay [5] was 38 fold. Further, the results for the MCF in assay [6] and in assay [7] were 125000 and 152000, respectively.
